According to US12240900 (MEDICOVESTOR, dated 2025):

Tests used:
[1] = target: T1, fusion protein containing the extracellular domain of human FRalpha and a polyhistidine tag (human, UniProt P15328 25-233); assay: ELISA, human FRalpha ECD-His coated
T1 construct: extracellular domain; Coated on ELISA plates; also called human FRalpha extracellular domain; not shown: polyhistidine tag
Procedure: (§1) The affinity of each IgG1 for FRalpha was confirmed by ELISA. Briefly, a fusion protein containing the extracellular domain of human FRalpha and a polyhistidine tag was used to coat ELISA plates, which were washed three times with phosphate-buffered saline (PBS) containing 0.1 percent polysorbate 20 (PBST), then blocked with PBS containing 5 percent powdered milk (PBSM), and then washed three more times with PBST. Wells were then incubated with antibodies at varying concentrations for 60 minutes at room temperature in 1 percent PBSM. Wells were then washed three times with PBST, after which the secondary, horseradish-peroxidase-conjugated antibody anti-human-IgG-Fc-HRP (ab97225, Abcam, United Kingdom) was added at a 1:8000 dilution in 1 percent PBSM for 50 minutes at room temperature. The wells were then washed six times with PBST, after which 3,3', 5,5"-tetramethylbenzidine (TMB) was added. The reaction was stopped with 2 molar sulfuric acid, and the TMB diamine product was quantified at 450 nanometers in a plate reader. Results are depicted in FIG. 2.

[2] = target: T2, fusion protein containing the extracellular domain of cynomolgus FRalpha and a polyhistidine tag (cynomolgus, UniProt A0A2K5U044 25-233); assay: ELISA, cynomolgus FRalpha ECD-His coated
T2 construct: extracellular domain; Coated on ELISA plates; also called cynomolgus FRalpha extracellular domain; not shown: polyhistidine tag
T2 sequence (A0A2K5U044 entry or part of it): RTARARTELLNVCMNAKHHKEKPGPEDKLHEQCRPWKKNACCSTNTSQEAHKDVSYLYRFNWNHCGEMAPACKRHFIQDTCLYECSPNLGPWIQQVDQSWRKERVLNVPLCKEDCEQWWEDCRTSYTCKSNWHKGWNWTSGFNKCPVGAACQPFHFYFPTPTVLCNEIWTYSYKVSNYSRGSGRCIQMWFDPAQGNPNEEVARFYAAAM
Procedure: as §1
The ELISA of the preceding paragraph was repeated with a fusion protein containing the extracellular domain of cynomolgus FRalpha and a polyhistidine tag. Results are depicted in FIG. 3.

[3] = target: T3, human FRalpha expressed on cells (transfected HEK293 cells; SKOV3 human ovarian cancer cells) (human, UniProt P15328 25-234); assay: flow cytometry on HEK293 cells transfected to express FRalpha
T3 construct: whole, on cells; also called folate receptor alpha
T3 sequence (P15328 25-234): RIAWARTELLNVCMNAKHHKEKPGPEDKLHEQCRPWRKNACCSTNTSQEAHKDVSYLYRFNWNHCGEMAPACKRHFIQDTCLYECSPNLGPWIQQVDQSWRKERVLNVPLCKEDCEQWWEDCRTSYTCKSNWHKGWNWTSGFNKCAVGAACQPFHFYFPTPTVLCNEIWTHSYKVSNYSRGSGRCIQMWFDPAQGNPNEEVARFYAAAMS
Procedure: (§2) The affinity of each antibody was then assessed by flow cytometry. Briefly, HEK293 cells transfected to express FRalpha were washed with fluorescence-activated cell sorting (FACS) buffer, to which the IgGs were added at varying concentrations and incubated at 4 degrees Celsius for 60 minutes. The cells were then centrifuged and washed twice in FACS buffer. A phycoerythrin-labelled anti-human IgG, Fcgamma antibody (109-115-098; Jackson ImmunoResearch, Pennsylvania, United States) was then added to the cells at a 1:200 dilution and incubated at 4 degrees Celsius for 30 minutes. The cells were then washed, resuspended in FACS buffer, and counted by flow cytometry. Results are depicted in FIG. 4.

[4] = target: T3, human FRalpha expressed on cells …; assay: flow cytometry on SKOV3 human ovarian cancer cells that express FRalpha
Procedure: as §2
The flow cytometry experiment of the preceding paragraph was repeated with a human ovarian cancer cell line that expresses FRalpha, SKOV3. Results are depicted in FIGS. 5A and 5B. […] The antibody according to SEQ ID NO: 3-12 was then designated the lead antibody for further development.

T1 sequence (P15328 25-233 limits assumed): as the sequence (A0A2K5U044 entry or part of it) above, with T2I, R4W, K37R, P146A, Y171H counted along it

B1: lead fully-human anti-FRalpha IgG1 antibody (antibody according to SEQ ID NO: 3-12) (antibody, V domains shown)
VH: EVQLLESGGGLVKPGGSLRLSCAASGFTFSSYTMNWVRQAPGKGLEWVSSISSGGGYIYYADSVKDRFTISRDNAKNSLYLQMNSLRAEDTAVYYCAKGDTIMIISAWGQGTTVTVSS
VL: DIQLTQSPSTLSASVGDRVTITCRASQSISSWLAWHQQKPGKAPKLLIYAASSLQNGVPSRFSGSGFGTDFTLTISSLQPEDFATYYCQQASSFPLTFGGGTKVEIKR
notes: Human IgG1 / kappa; also called lead antibody; the anti-FRalpha IgG of this disclosure
[1]
  EC50: ~0.05 nM
[2]
  EC50: ~0.06 nM
[3]
  EC50: ~5 nM
[4]
  EC50: < 1 nM

B2: Mirvetuximab (antibody, V domains shown)
VH: QVQLVQSGAEVVKPGASVKISCKASGYTFTGYFMNWVKQSPGQSLEWIGRIHPYDGDTFYNQKFQGKATLTVDKSSNTAHMELLSLTSEDFAVYYCTRYDGSRAMDYWGQGTTVTVSS
VL: DIVLTQSPLSLAVSLGQPAIISCKASQSVSFAGTSLMHWYHQKPGQQPRLLIYRASNLEAGVPDRFSGSGSKTDFTLTISPVEAEDAATYYCQQSREYPYTFGGGTKLEIK
[1]
  EC50: ~0.12 nM
[2]
  EC50: ~0.16 nM
[3]
  EC50: ~4 nM
